Measured values taken from patent US20230019513A1.

Biological target: murine Protein S (mouse) (UniProt Q08761)
Test: cell-based or functional assay

UniProt Q08761, sequence (Q08761 42-675): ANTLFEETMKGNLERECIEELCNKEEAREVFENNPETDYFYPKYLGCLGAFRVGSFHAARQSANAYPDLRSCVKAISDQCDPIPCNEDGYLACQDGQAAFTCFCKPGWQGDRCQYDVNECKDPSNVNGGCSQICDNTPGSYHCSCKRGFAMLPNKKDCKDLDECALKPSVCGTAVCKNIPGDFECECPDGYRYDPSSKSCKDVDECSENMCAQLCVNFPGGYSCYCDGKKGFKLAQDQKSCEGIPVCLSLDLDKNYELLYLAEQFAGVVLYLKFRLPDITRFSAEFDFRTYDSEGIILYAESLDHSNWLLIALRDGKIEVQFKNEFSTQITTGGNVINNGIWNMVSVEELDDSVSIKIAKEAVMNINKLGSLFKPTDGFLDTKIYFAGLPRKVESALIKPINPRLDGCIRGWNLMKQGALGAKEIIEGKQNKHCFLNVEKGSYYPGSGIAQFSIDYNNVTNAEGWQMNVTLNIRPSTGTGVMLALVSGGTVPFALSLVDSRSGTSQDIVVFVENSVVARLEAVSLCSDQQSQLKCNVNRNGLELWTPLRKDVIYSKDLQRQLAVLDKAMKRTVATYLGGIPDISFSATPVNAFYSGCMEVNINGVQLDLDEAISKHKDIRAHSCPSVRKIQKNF

| Substance | reduction of ETP in Ca2+ ionophore-activated PRP of WT mice at 8 nM APC [%] |
| --- | --- |
| mutated recombinant mouse APC (rmAPC L38D) (from UniProt P33587 42-460) (enzyme) | 30 |
| wild type recombinant mouse APC (wt-rmAPC) (from UniProt P33587 42-460) (enzyme) | 90 |
